Where no end group is shown, it is not given here.
B1: NH2-NSFDDWLAKGG-COOH (peptide)
peptide: H-NSFDDWLAKGG-OH
notes: free peptide, C-terminal carboxylic acid
B2: NH2-WTHPQFEQK-COOH (peptide)
peptide: H-WTHPQFEQK-OH
notes: as for B1
B3: NH2-SAWSHPQFEK-COOH (peptide)
peptide: H-SAWSHPQFEK-OH
notes: free peptide, C-terminal carboxylic acid; bought from IBA; also called Strep-tag II peptide; Strep-Tag II
B4: NH2-ADYLAEYHGG-COOH (peptide)
peptide: H-ADYLAEYHGG-OH
notes: as for B1

These binders were tested against T1, Tumor Necrosis Factor Alpha (human, UniProt P01375 77-233) (assay: peptide array, extension library, 3Z linker).
T1 construct: also called TNFα; TNF-α
T1 sequence (P01375 77-233 limits assumed): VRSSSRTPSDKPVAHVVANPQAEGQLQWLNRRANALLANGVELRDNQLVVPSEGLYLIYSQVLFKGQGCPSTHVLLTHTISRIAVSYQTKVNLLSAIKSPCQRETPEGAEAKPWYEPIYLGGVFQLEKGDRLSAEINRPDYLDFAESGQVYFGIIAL
TSVTVYVNN (also: array-bound via 3Z linker): binds. DGALYLFGN (also: array-bound via 3Z linker): binds. QAAIAIFGG (also: array-bound via 3Z linker): binds. GGTAVFVNT (also: array-bound via 3Z linker): binds.

What follows are binders tested against T2, Prostate Specific Antigen (human, UniProt P07288 25-261) (assay: peptide array, 5-mer library, 5Z linker).
T2 construct: also called PSA
T2 sequence (P07288 25-261 limits assumed): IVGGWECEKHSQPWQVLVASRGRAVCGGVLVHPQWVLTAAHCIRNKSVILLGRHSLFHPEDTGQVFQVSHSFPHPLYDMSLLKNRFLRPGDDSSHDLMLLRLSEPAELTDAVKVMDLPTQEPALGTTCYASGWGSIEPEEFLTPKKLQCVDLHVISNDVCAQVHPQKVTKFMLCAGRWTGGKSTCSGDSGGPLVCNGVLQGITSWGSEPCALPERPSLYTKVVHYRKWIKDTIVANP
WTVYA (also: array-bound via 5Z linker): binds. FEVYL (also: array-bound via 5Z linker): binds. RSILY (also: array-bound via 5Z linker): binds. WEVHL (also: array-bound via 5Z linker): binds.

Each binder was assayed against T2, Prostate Specific Antigen (assay: peptide array, double substitution/deletion library).
GTGWEVHLGKG: binds. GTDFEVYFPKI: binds. ALDWQVYAGFG: binds.

The binders below were run against T3, Taq polymerase (UniProt P19821 1-832) (assay: peptide array, 5-mer library, 5Z linker).
T3 sequence (P19821 whole entry): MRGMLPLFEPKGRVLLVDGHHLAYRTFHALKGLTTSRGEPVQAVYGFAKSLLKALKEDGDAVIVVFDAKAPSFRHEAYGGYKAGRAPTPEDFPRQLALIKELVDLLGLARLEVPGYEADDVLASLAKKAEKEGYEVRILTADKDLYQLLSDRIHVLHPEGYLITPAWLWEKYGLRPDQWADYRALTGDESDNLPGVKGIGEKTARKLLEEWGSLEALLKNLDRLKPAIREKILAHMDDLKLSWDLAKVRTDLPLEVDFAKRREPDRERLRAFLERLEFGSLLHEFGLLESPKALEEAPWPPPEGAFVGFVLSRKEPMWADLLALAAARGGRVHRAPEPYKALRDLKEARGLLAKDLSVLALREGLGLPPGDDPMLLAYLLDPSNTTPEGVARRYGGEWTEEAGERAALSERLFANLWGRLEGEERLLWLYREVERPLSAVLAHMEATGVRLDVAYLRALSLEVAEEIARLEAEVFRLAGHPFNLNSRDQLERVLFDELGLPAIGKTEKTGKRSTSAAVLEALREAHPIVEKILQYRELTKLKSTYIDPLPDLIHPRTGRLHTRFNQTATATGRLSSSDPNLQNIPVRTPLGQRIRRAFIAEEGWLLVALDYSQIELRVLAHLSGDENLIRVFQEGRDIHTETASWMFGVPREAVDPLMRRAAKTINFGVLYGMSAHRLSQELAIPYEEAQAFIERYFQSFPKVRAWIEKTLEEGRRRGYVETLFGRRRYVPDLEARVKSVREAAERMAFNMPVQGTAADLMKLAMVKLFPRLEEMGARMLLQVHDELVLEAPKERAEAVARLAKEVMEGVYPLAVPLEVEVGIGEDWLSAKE
WKEDW (also: array-bound via 5Z linker): binds. HEFSF (also: array-bound via 5Z linker): binds. WKAEK (also: array-bound via 5Z linker): binds. HYFEF (also: array-bound via 5Z linker): binds. WDWDW (also: array-bound via 5Z linker): binds. WTKVK (also: array-bound via 5Z linker): binds.

These binders were tested against T2, Prostate Specific Antigen (assay: peptide array, extension library, 3Z linker).
NGFEVYLPG (also: array-bound via 3Z linker): binds. SCRSILYND (also: array-bound via 3Z linker): binds. GQWEVHLGK (also: array-bound via 3Z linker): binds. SCRSILYGQ (also: array-bound via 3Z linker): binds. SCRSILYGP (also: array-bound via 3Z linker): binds. GDWTVYAGN (also: array-bound via 3Z linker): binds. SEWTVYAGN (also: array-bound via 3Z linker): binds. GQFEVYLPG (also: array-bound via 3Z linker): binds. TGWEVHLGK (also: array-bound via 3Z linker): binds. TDFEVYLPK (also: array-bound via 3Z linker): binds.

The binders below were run against T4, streptavidin (UniProt P22629 37-163, limits assumed) (assay: SPR, Biacore X100, streptavidin on CM5 chip, peptide in solution).
T4 construct: amine-coupled to a CM5 chip for SPR; also called SA
T4 sequence (P22629 37-163 limits assumed): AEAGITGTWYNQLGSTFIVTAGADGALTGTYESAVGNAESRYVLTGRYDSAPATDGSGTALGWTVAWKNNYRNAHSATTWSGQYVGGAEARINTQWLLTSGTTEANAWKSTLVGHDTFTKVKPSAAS
From the text: A selection of streptavidin peptide binders listed in Table 15 were synthesized using standard column-based synthesis techniques by UW Biotechnology center (Madison, Wis.) or by Peptide2.0 (Chantilly, Va.) at 98-99% purity. Strep-tag II peptide NH2-[…]-COOH was purchased from IBA GmbH (Goettingen, Germany). Synthesized peptides were then characterized by Surface Plasmon Resonance (SPR) to identify binding characteristics including the association rate constant (kₛ), dissociation rate constant (kd), and equilibrium dissociation […] (kd/kₐ=KD). In one aspect, SPR experiments were performed by using Biacore X100 instrument (GE Healthcare). Preliminarily, 60 μl of 100 μg/ml streptavidin in 10 mM Na-acetate, pH5.0 was immobilized to flow cell 2 (Fc2) of a sensor chip CM5 (GE Healthcare) using Amine Coupling Kit (GE Healthcare) at 20° C. for 6 min. Peptide stock solutions were prepared at 5 or 10 mM concentration in water and diluted in HBS-EP+ (GE Healthcare) buffer before SPR experiments. Peptide binding was performed in a multiple kinetics mode using HBS-EP+ as a running buffer and 0.2 M NaCl, 10 mM NaOH or 10 mM HCl-glycine, […] as regeneration buffer. Binding kinetics parameters were calculated with Biacore X100 software.
B1 showed a Kd of 11.3 µM. Binder B2 has a Kd of 15.5 µM. Binder H-AFDYLAQYHGG-NH2 (free peptide) [NH2-AFDYLAQYHGG-amide] has a Kd of 1.52 µM, a koff of 0.0354 s⁻¹ and a kon of 23300 M⁻¹ s⁻¹. Work on H-WTHPQFEQPKA-NH2 (free peptide) [NH2-WTHPQFEQPKA-amide] yielded a Kd of 7.9 µM. For B3, the Kd was 49.8 µM. Work on H-AFPDYLAEYHGG-NH2 (free peptide) [NH2-AFPDYLAEYHGG-amide] yielded a Kd of 0.043 µM, a koff of 0.00128 s⁻¹ and a kon of 30100 M⁻¹ s⁻¹. B4 was tested, and the Kd was 96 µM.

What follows are binders tested against T3, Taq polymerase (assay: peptide array, extension library, 3Z linker).
YEHEFSFGT (also: array-bound via 3Z linker): binds. GEHYFEFAP (also: array-bound via 3Z linker): binds. FGWKAEKFN (also: array-bound via 3Z linker): binds. KKWDWDWKW (also: array-bound via 3Z linker): binds. GEHYFEFQQ (also: array-bound via 3Z linker): binds. RSWDWDWKK (also: array-bound via 3Z linker): binds. YEWTKVKNY (also: array-bound via 3Z linker): binds. GQHEFSFGT (also: array-bound via 3Z linker): binds. QQHYFEFEK (also: array-bound via 3Z linker): binds. YSWTKVKDY (also: array-bound via 3Z linker): binds. YKWKEDWKW (also: array-bound via 3Z linker): binds.

The binders below were run against T1, Tumor Necrosis Factor Alpha (assay: peptide array, 5-mer library, 5Z linker).
VTVYV (also: array-bound via 5Z linker): binds. TAVFV (also: array-bound via 5Z linker): binds. AIAIF (also: array-bound via 5Z linker): binds. ALYLF (also: array-bound via 5Z linker): binds.

Reference: patent US20160305952A1 (ROCHE SEQUENCING SOLUTIONS, published 2016)
